{"source": "the DeepSol protein solubility set"}
{"experiment": "soluble on expression in E. coli; label from the status in PepcDB or PDB records"}
{"sequence": "MSTNITFHASALTRSERTELRNQRGLTIWLTGLSASGKSTLAVELEHQLVRDRRVHAYRLDGDNIRFGLNKDLGFSEADRNENIRRIAEVAKLFADSNSIAITSFISPYRKDRDTARQLHEVATPGEETGLPFVEVYVDVPVEVAEQRDPKGLYKKAREGVIKEFTGISAPYEAPANPEVHVKNYELPVQDAVKQIIDYLDTKGYLPAKKE", "soluble on expression in E. coli": "soluble"}
{"sequence": "MSTPDDPVIHSPPSIGAAPGMNGYHGSGVKLEESSGACGSPDDGLLDSSEESRRRQKTCRVCGDHATGYNFNVITCESCKAFFRRNALRPKEFKCPYSEDCEINSVSRRFCQKCRLRKCFTVGMKKEWILNEEQLRRRKNSRLNNTGTCNKRSQPGNQQSPQGPNQQPHLSPHHPGVAIYPPQPQRPLTINPMDNQMMHHMQANRPNAMPQLISPPGAQPYPLTSPVGSSASDSPPNRSLTMMHNGEKSPDGYDPNIMAHRAPPPSFNNRPKMDSGQVVLSTEEYKQLLSRIPGAQVPGLMNEEEPINKRAAYNCNGHPMPAETTPPYSAPMSDMSLSRHNSTSSGTEKNHMTHSTVSAIPGNSAQNHFDIASFGMGIVTATGGGDAAEEMYKRMNMFYENCIQSALDSPENQEPKPQEAMIPKEEYMTPTHGFQYQSDPYQVPPAERNINYQLNAAELKALDAVREAFYGMDDPMEQGRQMQSFLKANKTPADIMNIMDVTMRRFVKVAKGVPAFREVSQEGKFSLLKGGMIEMLTVRGVTRYDASTNSFKTPTIKGQNVSVNVDDMFAKLNANAQAQKAKCLEFFGFFDEEIKKNELAVYLVMLAVLFSVRSDPPMNENDVRIVTERHNHFMSLLNRYLESLFGEQARRIFERIPKALGLLNEIARNAGMLFMGTVRSGEAEELPGEFFKIK", "soluble on expression in E. coli": "not soluble"}
{"sequence": "MSTRSARIVVVSSRAAAGVYTDDCGPIIAGWLEQHGFSSVQPQVVADGNPVGEALHDAVNAGVDVIITSGGTGISPTDTTPEHTVAVLDYVIPGLADAIRRSGLPKVPTSVLSRGVCGVAGRTLIINLPGSPGGVRDGLGVLADVLDHALEQIAGGDHPR", "soluble on expression in E. coli": "soluble"}
{"sequence": "MSTRWRYYNSKRGNGFRGRGRGRGRGTSLTAVALPRDDNFHKGAQDGAYFKDMPMDPEQFRDETVLSLSFAQGMLGAAYYEQSSQLLKIMNDISEDLEFRFLKRLIDDVKPTLIIANRSQDLEFIKFLTTRYDPQEKIYEDGTTEEGTSEDTVPTWDSSLAYSTDETTAEKEEKEEDEDDDDEGLPAKLNKLPNNFFRMSRAIERLKAMAGSHDSSMTEEDKYIIIKMRFDIEAVNMIRSFGALLLFLDETRMGVTDDPLSVTSPIKSIKTFTLGNLVEIDFNTIQALDILPKETENKKTFGQGRSLYQLMDKCRSTVGKKCLRKWFRNPTTDRDDLVSRQKCVHYFKQDWNAEVTAKLSSILGRVKALNSVFQKFQSGTAQLIHWECFVSTVNALVEILNIIRQTPISKEFPVESDLLREVSEIAVIAGSIINFAESKIQGRVTVMNGIDEELDEIRDTYENMPMVLTAIAKQEEARLGLPPYSNVACVYIPLVGFVLSVPRDYGVESQPDMTLLYSTHEDLRVRNATTSRLDDEFGDILMRLIDSQTAIILTLKTRVMKKKRSIIKLLSIASRIDVLISFGLIAAQNGWNCPALVDEPVIEAVELYHPISVLVVKKSFVPNQVSSGRDGIKASIITGPNACGKSVYMKSIGIMVFLSHIGSFVPARHAKIGIVDRIVTRMFTVDSVLDGMSTFAKDVEQVALALRKATGNSLVIIDEFGKGTMTEVGLSLLASVMTYWMNRGADRCPHIFLSSHFHALPNYIPLETNIATFLTFTVLREAGGKIKYLFRMTPGLVDCSFALSVAKEEGIPPPVIGRACRIYKALKAGTLLKEIKAEVSNDNEKQLVEDMDVVLADEDGFMAAVESFVKRKKTSFCESSMRNVSEEIEKERSEASTPASKSRSTITARSNSVLSSRSMASVDQLSVLDALLPKKKKKKVTGSSMESSMSPDPFQEEDEGTEGEEDQISAPVSRPTLPSVQKYASEEEKQQSINSRHSFSTRTAIHIPTPIQMGEAGGVKRPRSTSTSSPGPSASKSVRTEVFKKTPNVKESQVLETPKQLSISSFLEPKFPSSEKDVISRVSERYLQSDPFKTPISDRRSQQSSRHSTPKNRSMNQSLIQSARDTPHETIRSSNEVNPEFFNIFNFPDDSILKSQDTYDPNVTPRSSSRRELRPDVSHSQNSQFGEVFSELGTQFSIFNSQQSFPGNSMGTTNPDCSIFDDFFANSQDGEKKIDSTKTSMPIVNSDNFIFKTPEPRSSEKQRSLLKNKGQASNSSISPSSLILGQLAFGDVDQTPRPRGDNPIEFQYDVVDDDDPIFEEKNCSAPVFEFLKSNDDEEDDEFLKSFLETEGSLHIDTSADETIDRSKRS", "soluble on expression in E. coli": "not soluble"}
{"sequence": "MSTSEKRKGMQTDMPELQAMISQRIQEQNYREVLKGVTAFPWCTDDPCVFRTAAGNLWIAVGHVNRKSEVPKFSYKNFLCAYLLGNAEDGVAAYLDLQAAAWKGVELVMFSSHADGLSALYGDGRANDRDLLYRFFGRNYVFAVGFRKKEEKEQASAGDKIFIASVDAVGFGEIDKDGKLAVINKIMSYEQFFDDEDLKPMWGALAVKLFILKCNGYRESAKDRKALDILLHDMMKLCKSMELTAGLDDQKRKHPESAGINPQMALLKNEAMVKVHNGMDEKVKSNLPLLEWAVNHLPAKLLQEFGTFVESVPQIKEPTAYDNLMSLESVLKEMDRLFKKAAEEENLSLTKNSMTDG", "soluble on expression in E. coli": "not soluble"}
{"sequence": "MSTVGLFHFPTPLTRICPAPWGLRLWEKLTLLSPGIAVTPVQMAGKKDYPALLSLDENELEEQFVKGHGPGGQATNKTSNCVVLKHIPSGIVVKCHQTRSVDQNRKLARKILQEKVDVFYNGENSPVHKEKREAAKKKQERKKRAKETLEKKKLLKELWESSKKVH", "soluble on expression in E. coli": "soluble"}
{"sequence": "MSVAGLKKQFHKASQLFSEKISGAEGTKLDEEFLNMEKKIDITSKAVAEILSKATEYLQPNPAYRAKLGMLNTVSKLRGQVKATGYPQTEGLLGDCMLKYGKELGEDSAFGNSLVDVGEALKLMAEVKDSLDINVKQTFIDPLQLLQDKDLKEIGHHLRKLEGRRLDYDYKKRRVGKIPEEEIRQAVEKFEESKELAERSMFNFLENDVEQVSQLAVFVEAALDYHRQSTEILQELQSKLELRISLASKVPKREFMPKPVNMSSTDANGVGPSSSSKTPGTDTPSDQPCCRGLYDFEPENEGELGFKEGDIITLTNQIDENWYEGMLRGESGFFPINYVEVIVPLPP", "soluble on expression in E. coli": "soluble"}
{"sequence": "MSVARHTQILPSVLDRLLDDEPDQSHIESISLFELPQFKRALARDLEALLNTRLMPLDELMESFPQARDSLLTFGIPDLSGISLLNPDDRELLREQLRRSIELHEPRLSRVRVNLDAPREMERHLRFRVDAVLKVHPHRPPVTFDATLQLSSNVYKVQG", "soluble on expression in E. coli": "not soluble"}
{"sequence": "MSVASLFEKFFLSASFIDKAPRTQKDYLGYKKDLLIAFGKMDINKVEPKHVRMFMDKKAVKSGISQANRHKSALQSIFSWAYERGKIKVNPCVGVKKFTEKLEHHHHHH", "soluble on expression in E. coli": "not soluble"}
{"sequence": "MSVCLFLRFCSLRVRCRRLMCRPGEIIHIMWSALAWRWCAVMLTGSQRYAFCNDRFHNRKITRLRNNFMPNILPTDLCANTPTLAIHDNRGFAIRTLAYNRRDHNETIGELISRNRYNASGQLIASRDPRLEVDNFRYQYSLSGVPLRTDSVDSGSTLQLADSAGRTVLTLDAHHTRRWVEYETGEHSLGRPLSYHEQAKGGLKTVTDRFFYATNSEQDKSGNLNGQCVRHYDSAGLQALINQSIIGVPLQQQRRLLTNPKGPVDWFGEKENWGARLSEQPFVSHSTTDALGQLLTQTDAKGHIQRMAYNRAGQLIGSWLTIKNSAEQVILRSLTYSAAGQKLREESGNGVITEYRYEPQTQRLIGIKTTRPAKKDRPTRLQDLRYDYDPVGNILAIHNDAEATRFYRNQKIVPETTYRYDALYQLIEATGREADTNGIQNSQLPALASLNDSNQFVNYTRSYHYDRAGNLLKIQHTGASQYSTHITVSDSSNHGIQQQEGITARDIRSQFDAAGNQQQLQPGQPLRWNSRNQLQQVEPVPRNDGISDSESYLYDGGGSRVVKTSLHKTHNAIQTRSVIYLAGLELRSQYNGNNLTEDFQVITVGAAGRAQVRVLHWERGQPVDIVNDQLRYSFDNHLGSALIELDSDGDIISQEEYYPFGGTAVLASRNTVEAKYKTVRYSGKERDATGLYYYGYRYYQPWLGRWLSADPAGTIDGLNLYRMVRNNPVGLMDGDGLMTDKLLAKHEANFAKKNISSMAELKSEIEKLGLLPADSKQLFLHLNGGESDDEPSGSSGSSGSSEILENTSPHKIKNFHFISEINLATMPRPYYKDFSSTEDMLESAERLKAYGSIDTLLTLDLTSEDIPEFTSILADKGINYIAEKQYEIIDYFSEDELSSENIDRIVNMIKTIQNNNHKVGIHCAAGNGRSGLIATAMIINKKYTQSRINSFEEKNKLKEIIDKNKNEINVDAITYDAMKLVRKTNPFAGERTTDIKAAREYSRYLYSKQNR", "soluble on expression in E. coli": "not soluble"}
{"sequence": "MSVFAFSFCAVVIMPNLLAMSDEETRGRQAMVANFVKDNQKTIRNGKGDKWMSNFLKTQNLTFHRSLSSPSAMSDSSSQNLVVLADVGTAACASGWTRYDLTGMCYQQSKKTMNWYQGEDYCWNLRPGAHSASVHSQEEAKWLNSLYRDKKNGGQMDSWIGLRRDCDNVTYIWTDGSPTDCLWWQPDYPKSEFAEFSCVTIWETDWLYDNPAYIPGQYDDMKECSDDGSNTPTTTTTMQTTTPSTTSTPTTTSTTTTTSASTTTISTTKPPTTQIDIEKCTSNCPVGWIYFGGLCYSKIQGPGRFVDFNSECTRLGGKLGEVSGADGNEALRLALTSNNGNKILDEAWIQHIGSYNNVASGYVGTAGSCYTVLKNSQTN", "soluble on expression in E. coli": "not soluble"}
{"sequence": "MSVFTPLARPELETFLAPYGLGRLLDYQGIAAGSENTNYFISLEQGEFVLTLVERGPVQEMPFFIELLDVLHDANLPVPYALRTTDGQALRELAGKPALLQPRLPGKHISEPNTQHCVQIGELLANLHLATREQVLERKTDRGLDWMLSEGRNFLSHLGETQRALLEKSLQEIEDLKPQIMALPRANLHADLFRDNVLFEGTHLTGLIDFYNACSGPMLYDLAIALNDWCSRENGQLDAVRARALLGAYAGLRPFTAAESKLWATMLRIACVRFWLSRLIAAETFAGQDVLIHDPVEFEQRLAERQTPHIALPFAL", "soluble on expression in E. coli": "soluble"}
{"sequence": "MSVLRSMDKLPDLNRATVLLVSTEDALLQQLAESMLKDDCASELRVHLANSLPLPSNVNRPRIDLIVFVINLHSKYSLQKVEEFLQHVDSSFFLGKVCFLVTGAGQESHCSVHQNTVIKLAHTYRSPLFLCDLQKVESFRAAMARRLVRILQICAGHVPGVSALNLMSLLRSPENPPSKEL", "soluble on expression in E. coli": "not soluble"}
{"sequence": "MSVLSIIACEMLEDELVYVLSKDQNAVRLILVENRQCFRFVRKLKSGNCQARIFPPERISFFIKQMNRPASMKIPNFLLKFPFFGKIHENMKEKNRETITVVVNILKLGLHADCDLLKSEIYRNMKEMVEFSDGILIFYGNCGRPLRGLEAEFKDFNCPLYFLEDEKGNIVDDCISIALGGNDNYAEVMQSGNGTGMIYLTPMWASSWKEMRMEPGDTSDFNVSFLKRHYRKVVKISNEISMGSEFDKNVLNYARTFDMSIIEMKGSMEIAMKSYMNARNGICKKDPIQKSSLEHHHHHH", "soluble on expression in E. coli": "not soluble"}
{"sequence": "MSVNFFSLITSSWERGLFLKSCKNNSGTDSNRFFSFSVPPNLLDNLLPPLLVRKTLSSSSSKSCGIGGIYFKSSAVNVSEDGLTASTFFSILLPKNFLGITKLFCRIFLLSCPHNYKWFIHLINPFEYENFINIE", "soluble on expression in E. coli": "soluble"}
